Experimental data taken from publication PMC11985968 (Nature Communications, 2025).
Where “and” joins values, the source holds several entries; their conditions need not be identical. Identical values can stand only once.

Molecular target: T1, Mycobacterium tuberculosis UvrA (Mycobacterium tuberculosis, UniProt P9WQK7 1-972)
T1 sequence: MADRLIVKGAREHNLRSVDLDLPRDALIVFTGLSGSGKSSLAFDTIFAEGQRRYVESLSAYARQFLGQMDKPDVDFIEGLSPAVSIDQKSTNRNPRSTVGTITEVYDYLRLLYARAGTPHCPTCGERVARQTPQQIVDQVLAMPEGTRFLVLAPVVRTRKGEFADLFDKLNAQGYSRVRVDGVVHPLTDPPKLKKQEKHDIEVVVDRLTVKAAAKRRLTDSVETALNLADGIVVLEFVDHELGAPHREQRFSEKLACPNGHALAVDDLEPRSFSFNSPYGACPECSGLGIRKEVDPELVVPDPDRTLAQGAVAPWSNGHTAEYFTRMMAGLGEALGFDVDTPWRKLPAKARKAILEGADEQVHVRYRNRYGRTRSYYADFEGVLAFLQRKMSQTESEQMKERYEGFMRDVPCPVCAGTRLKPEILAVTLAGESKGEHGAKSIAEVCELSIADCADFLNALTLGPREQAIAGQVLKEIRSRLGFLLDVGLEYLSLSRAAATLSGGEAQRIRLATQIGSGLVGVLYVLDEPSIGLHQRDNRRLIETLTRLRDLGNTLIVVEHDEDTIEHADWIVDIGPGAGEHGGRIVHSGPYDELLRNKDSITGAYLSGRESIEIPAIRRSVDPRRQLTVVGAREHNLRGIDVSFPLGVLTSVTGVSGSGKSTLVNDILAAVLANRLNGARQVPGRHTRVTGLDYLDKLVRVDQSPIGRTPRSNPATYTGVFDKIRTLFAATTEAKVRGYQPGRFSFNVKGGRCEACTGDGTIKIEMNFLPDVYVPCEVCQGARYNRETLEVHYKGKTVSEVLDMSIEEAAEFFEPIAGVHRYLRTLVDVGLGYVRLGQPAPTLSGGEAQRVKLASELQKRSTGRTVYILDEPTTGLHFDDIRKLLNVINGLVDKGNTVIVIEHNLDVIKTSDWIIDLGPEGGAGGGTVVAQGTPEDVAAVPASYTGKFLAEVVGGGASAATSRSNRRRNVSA
Test: cryo-EM structure

B1: Mycobacterium tuberculosis UvrB (enzyme)
chain: VRAGGHFEVVSPHAPAGDQPAAIDELERRINAGERDVVLLGATGTGKSATTAWLIERLQRPTLVMAPNKTLAAQLANELREMLPHNAVEYFVSYYDYYQPEAYIAQTDTYIEKDSSINDDVERLRHSATSALLSRRDVVVVASVSCIYGLGTPQSYLDRSVELKVGEEVPRDGLLRLLVDVQYTRNDMSFTRGSFRVRGDTVEIIPSYEELAVRIEFFGDEIEALYYLHPLTGEVIRQVDSLRIFPATHYVAGPERMAHAVSAIEEELAERLAELESQGKLLEAQRLRMRTNYDIEMMRQVGFCSGIENYSRHIDGRGPGTPPATLLDYFPEDFLLVIDESHVTVPQIGGMYEGDISRKRNLVEYGFRLPSACDNRPLTWEEFADRIGQTVYLSATPGPYELSQTGGEFVEQVIRPTGLVDPKVVVKPTKGQIDDLIGEIRTRADADQRVLVTTLTKKMAEDLTDYLLEMGIRVRYLHSEVDTLRRVELLRQLRLGDYDVLVGINLLREGLDLPEVSLVAILDADKEGFLRSSRSLIQTIGRAARNVSGEVHMYADKITDSMREAIDETERRRAKQIAYNEANGIDPQPLRKKIADILDQVYREADDTAVVEVGGSGRNASRGRRAQGEPGRAVSAGVFEGRDTSAMPRAELADLIKDLTAQMMAAARDLQFELAARFRDEIADLKRELRGMDAAGLK
For B1, the “stoichiometry N” value was 1 UvrB per UvrA dimer and 2 UvrB per UvrA dimer.
